Assay results: patent US20070134660

B1: KIF14 motor domain V342-K720 (SEQ ID NO:4) (protein)
chain: MVQNTSAGKDPLKVENSQVTVAVRVRPFTKREKIEKASQVVFMSGKEITVEHPDTKQVYNFIYDVSFWSFDECHPHYASQTTVYEKLAAPLLERAFEGFNTCLFAYGQTGSGKSYTMMGFSEEPGIIPRFCEDLFSQVARKQTQEVSYHIEMSFFEVYNEKIHDLLVCKDENGQRKQPLRVREHPVYGPYVEALSMNIVSSYADIQSWLELGNKQRATAATGMNDKSSRSHSVFTLVMTQTKTEFVEGEEHDHRITSRINLIDLAGSERCSTAHTNGDRLKEGVSINKSLLTLGKVISALSEQANQRSVFIPYRESVLTWLLKESLGGNSKTAMIATISPAASNIEETLSTLRYANQARLIVNIAKVNEDMNAKLIRELKLEHHHHHHHHHHHH
B2: KIF14 motor domain V342-D710 (SEQ ID NO:5) (protein)
chain: MVQNTSAGKDPLKVENSQVTVAVRVRPFTKREKIEKASQVVFMSGKEITVEHPDTKQVYNFIYDVSFWSFDECHPHYASQTTVYEKLAAPLLERAFEGFNTCLFAYGQTGSGKSYTMMGFSEEPGIIPRFCEDLFSQVARKQTQEVSYHIEMSFFEVYNEKIHDLLVCKDENGQRKQPLRVREHPVYGPYVEALSMNIVSSYADIQSWLELGNKQRATAATGMNDKSSRSHSVFTLVMTQTKTEFVEGEEHDHRITSRINLIDLAGSERCSTAHTNGDRLKEGVSINKSLLTLGKVISALSEQANQRSVFIPYRESVLTWLLKESLGGNSKTAMIATISPAASNIEETLSTLRYANQARLIVNIAKVNEDLEHHHHHHHHHHHH
B3: hu_nKHC (1-340H) motor domain (SEQ ID NO:18) (protein)
chain: MAETNNECSIKVLCRFRPLNQAEILRGDKFIPIFQGDDSVVIGGKPYVFDRVFPPNTTQEQVYHACAMQIVKDVLAGYNGTIFAYGQTSSGKTHTMEGKLHDPQLMGIIPRIARDIFNHIYSMDENLEFHIKVSYFEIYLDKIRDLLDVTKTNLSVHEDKNRVPFVKGCTERFVSSPEEILDVIDEGKSNRHVAVTNMNEHSSRSHSIFLINIKQENMETEQKLSGKLYLVDLAGSEKVSKTGAEGAVLDEAKNINKSLSALGNVISALAEGTKSYVPYRDSKMTRILQDSLGGNCRTTMFICCSPSSYNDAETKSTLMFGQRAKTIKNTASVNLELTAEVDKLAAALEHHHHHH
B4: KIF14 motor domain V354-K720 (SEQ ID NO:6) (protein)
chain: MVENSQVTVAVRVRPFTKREKIEKASQVVFMSGKEITVEHPDTKQVYNFIYDVSFWSFDECHPHYASQTTVYEKLAAPLLERAFEGFNTCLFAYGQTGSGKSYTMMGFSEEPGIIPRFCEDLFSQVARKQTQEVSYHIEMSFFEVYNEKIHDLLVCKDENGQRKQPLRVREHPVYGPYVEALSMNIVSSYADIQSWLELGNKQRATAATGMNDKSSRSHSVFTLVMTQTKTEFVEGEEHDHRITSRINLIDLAGSERCSTAHTNGDRLKEGVSINKSLLTLGKVISALSEQANQRSVFIPYRESVLTWLLKESLGGNSKTAMIATISPAASNIEETLSTLRYANQARLIVNIAKVNEDMNAKLIRELKLEHHHHHHHHHHHH
B5: hu_uKHC (1-337H) motor domain (SEQ ID NO:17) (protein)
chain: MADLAECNIKVMCRFRPLNESEVNRGDKYIAKFQGEDTVVIASKPYAFDRVFQSSTSQEQVYNDCAKKIVKDVLEGYNGTIFAYGQTSSGKTHTMEGKLHDPEGMGIIPRIVQDIFNYIYSMDENLEFHIKVSYFEIYLDKIRDLLDVSKTNLSVHEDKNRVPYVKGCTERFVCSPDEVMDTIDEGKSNRHVAVTNMNEHSSRSHSIFLINVKQENTQTEQKLSGKLYLVDLAGSEKVSKTGAEGAVLDEAKNINKSLSALGNVISALAEGSTYVPYRDSKMTRILQDSLGGNCRTTIVICCSPSSYNESETKSTLLFGQRAKTIKNTVCVNVELTAVDKLAAALEHHHHHH
B6: hu_MKLP-1 (1-433H) motor domain (SEQ ID NO:20) (protein)
chain: MARAKTPRKPTVKKGSQTNLKDPVGVYCRVRPLGFPDQECCIEVINNTTVQLHTPEGYRLNRNGDYKETQYSFKQVFGTHTTQKELFDVVANPLVNDLIHGKNGLLFTYGVTGSGKTHTMTGSPGEGGLLPRCLDMIFNSIGSFQAKRYVFKSNDRNSMDIQCEVDALLERQKREAMPNPKTSSSKRQVDPEFADMITVQEFCKAEEVDEDSVYGVFVSYIEIYNNYIYDLLEEVPFDPIKPKPPQSKLLREDKNHNMYVAGCTEVEVKSTEEAFEVFWRGQKKRRIANTHLNRESSRSHSVFNIKLVQAPLDADGDNVLQEKEQITISQLSLVDLAGSERTNRTRAEGNRLREAGNINQSLMTLRTCMDVLRENQMYGTNKMVPYRDSKLTHLFKNYFDGEGKVRMIVCVNPKAEDYEENLQVMRFAEVTQEVDKLAAALEHHHHHH
B7: KIF14 motor domain V354-D710 (SEQ ID NO:7) (protein)
chain: MVENSQVTVAVRVRPFTKREKIEKASQVVFMSGKEITVEHPDTKQVYNFIYDVSFWSFDECHPHYASQTTVYEKLAAPLLERAFEGFNTCLFAYGQTGSGKSYTMMGFSEEPGIIPRFCEDLFSQVARKQTQEVSYHIEMSFFEVYNEKIHDLLVCKDENGQRKQPLRVREHPVYGPYVEALSMNIVSSYADIQSWLELGNKQRATAATGMNDKSSRSHSVFTLVMTQTKTEFVEGEEHDHRITSRINLIDLAGSERCSTAHTNGDRLKEGVSINKSLLTLGKVISALSEQANQRSVFIPYRESVLTWLLKESLGGNSKTAMIATISPAASNIEETLSTLRYANQARLIVNIAKVNEDLEHHHHHHHHHHHH
B8: hu_KIF3A (1-350H) motor domain (SEQ ID NO:16) (protein)
chain: MPINKSEKPESCDNVKVVVRCRPLNEREKSMCYKQAVSVDEMRGTITVHKTDSSNEPPKTFTFDTVFGPESKQLDVYNLTARPIIDSVLEGYNGTIFAYGQTGTGKTFTMEGVRAIPELRGIIPNSFAHIFGHIAKAEGDTRFLVRVSYLEIYNEEVRDLLGKDQTQRLEVKERPDVGVYIKDLSAYVVNNADDMDRIMTLGHKNRSVGATNMNEHSSRSHAIFTITIECSEKGIDGNMHVRMGKLHLVDLAGSERQAKTGATGQRLKEATKINLSLSTLGNVISALVDGKSTHVPYRNSKLTRLLQDSLGGNSKTMMCANIGPADYNYDETISTLRYANRAKNIKNKARVDKLAAALEHHHHHH
B9: hu_CENP-E (1-340H) motor domain (SEQ ID NO:19) (protein)
chain: MAEEGAVAVCVRVRPLNSREESLGETAQVYWKTDNNVIYQVDGSKSFNFDRVFHGNETTKNVYEEIAAPIIDSAIQGYNGTIFAYGQTASGKTYTMMGSEDHLGVIPRAIHDIFQKIKKFPDREFLLRVSYMEIYNETITDLLCGTQKMKPLIIREDVNRNVYVADLTEEVVYTSEMALKWITKGEKSRHYGETKMNQRSSRSHTIFRMILESREKGEPSNCEGSVKVSHLNLVDLAGSERAAQTGAAGVRLKEGCNINRSLFILGQVIKKLSDGQVGGFINYRDSKLTRILQNSLGGNAKTRIICTITPVSFDETLTALQFASTAKYMKNTPYVNEVSTVDKLAAALEHHHHHH
B10: hu-KSP (1-367H) motor domain (SEQ ID NO:15) (protein)
chain: MASQPNSSAKKKEEKGKNIQVVVRCRPFNLAERKASAHSIVECDPVRKEVSVRTGGLADKSSRKTYTFDMVFGASTKQIDVYRSVVCPILDEVIMGYNCTIFAYGQTGTGKTFTMEGERSPNEEYTWEEDPLAGIIPRTLHQIFEKLTDNGTEFSVKVSLLEIYNEELFDLLNPSSDVSERLQMFDDPRNKRGVIIKGLEEITVHNKDEVYQILEKGAAKRTTAATLMNAYSSRSHSVFSVTIHMKETTIDGEELVKIGKLNLVDLAGSENIGRSGAVDKRAREAGNINQSLLTLGRVITALVERTPHVPYRESKLTRILQDSLGGRTRTSIIATISPASLNLEETLSTLEYAHRAKNILNKPEVNQHHHHHH
B11: hu_KIF1B (1-350H) motor domain (SEQ ID NO:21) (protein)
chain: MSGASVKVAVRVRPFNSRETSKESKCIIQMQGNSTSIINPKNPKEAPKSFSFDYSYWSHTSPEDPCFASQNRVYNDIGKEMLLHAFEGYNVCIFAYGQTGAGKSYTMMGKQEESQAGIIPQLCEELFEKINDNCNEEMSYSVEVSYMEIYCERVRDLLNPKNKGNLRVREHPLLGPYVEDLSKLAVTSYTDIADLMDAGNKARTVAATNMNETSSRSHAVFTIVFTQKKHDNETNLSTEKVSKISLVDLAGSERADSTGAKGTRLKEGANINKSLTTLGKVISALAEVDNCTSKSKKKKKTDFIPYRDSVLTWLLRENLGGNSRTAMVAALSPADINYDETLSTLRYADRVDKLAAALEHHHHHH

Each protein was assayed against taxol-stabilized microtubules.
With B1 the K1/2 (MT) was 10.6 µM, the “Km (Michaelis-Menten fit of microtubule utilization)” value was “a Km of 2.6+/-1.1 (s.d.)” and the k(obs) (min-1) at MT 0 micromolar was 0 min⁻¹. The k(obs) (min-1) at MT 0.25 micromolar was 0.36 min⁻¹, the k(obs) (min-1) at MT 0.5 micromolar was 1.57 min⁻¹ and the k(obs) (min-1) at MT 1 micromolar was 2.79 min⁻¹. For the same protein, the k(obs) (min-1) at MT 2.5 micromolar was 9.1 min⁻¹, the k(obs) (min-1) at MT 5 micromolar was 13.2 min⁻¹ and the “kcat (Michaelis-Menten fit of microtubule utilization)” value was “a kcat of 21.3+/-3.5 (s.d.)”. The “kcat/Km under optimized conditions (MES, pH 6.0, 40 mM KCl)” value was “compared to 13.2 under optimized conditions (MES, pH 6.0,40 mM KCl)”, the “kcat/Km under unoptimized conditions (K-PIPES, pH 6.7, 90 mM KCl)” value was “the kcat/Km for the V342-K720 motor domain (SEQ ID NO:4) under unoptimized conditions (K-PIPES, pH 6.7, 90 mM KCl) was 224” and the “microtubule-dependent ATP hydrolysis activity” value was “All of the KIF14 MD proteins showed microtubule-dependent ATP hydrolysis activity”.
For B2, the k(obs) (min-1) at MT 0 micromolar was 0 min⁻¹, the k(obs) (min-1) at MT 0.25 micromolar was 0.03 min⁻¹ and the k(obs) (min-1) at MT 0.5 micromolar was 0.73 min⁻¹. For the same protein, the k(obs) (min-1) at MT 1 micromolar was 0.79 min⁻¹, the k(obs) (min-1) at MT 2.5 micromolar was 3.02 min⁻¹ and the k(obs) (min-1) at MT 5 micromolar was 5.91 min⁻¹. For the same protein, the “microtubule-dependent ATP hydrolysis activity” value was “All of the KIF14 MD proteins showed microtubule-dependent ATP hydrolysis activity”.
In the case of B3, the K1/2 (MT) is reported as 1.1 µM.
Protein B4 has a k(obs) (min-1) at MT 0 micromolar of 0 min⁻¹, a k(obs) (min-1) at MT 0.25 micromolar of 0.73 min⁻¹ and a k(obs) (min-1) at MT 0.5 micromolar of 1.49 min⁻¹. For the same protein, the k(obs) (min-1) at MT 1 micromolar was 4.12 min⁻¹, the k(obs) (min-1) at MT 2.5 micromolar was 9.29 min⁻¹ and the k(obs) (min-1) at MT 5 micromolar was 18.3 min⁻¹. The “microtubule-dependent ATP hydrolysis activity” value was “All of the KIF14 MD proteins showed microtubule-dependent ATP hydrolysis activity”.
B5 was tested, and the K1/2 (MT) was 0.34 µM.
Protein B6 has a K1/2 (MT) of 0.24 µM.
In the case of B7, the k(obs) (min-1) at MT 0 micromolar is reported as 0 min⁻¹, the k(obs) (min-1) at MT 0.25 micromolar is reported as 0.39 min⁻¹ and the k(obs) (min-1) at MT 0.5 micromolar is reported as 1.07 min⁻¹. The k(obs) (min-1) at MT 1 micromolar was 1.87 min⁻¹, the k(obs) (min-1) at MT 2.5 micromolar was 5.79 min⁻¹ and the k(obs) (min-1) at MT 5 micromolar was 10.2 min⁻¹. The “microtubule-dependent ATP hydrolysis activity” value was “All of the KIF14 MD proteins showed microtubule-dependent ATP hydrolysis activity”.
For B8, the K1/2 (MT) was 0.17 µM.
Work on B9 yielded a K1/2 (MT) of 1.6 µM.
B10 gave a K1/2 (MT) of 0.3 µM.
For B11, the K1/2 (MT) was 0.035 µM.
